Results published in the supplement of paper PMC7125110.
± gives the standard error. Fewer inactive variants are shown than the library holds.

B1: glmS ribozyme (parent)
chain: AUAAAAGCGCCAGAACUACAGAAAUGUAGUUGACGAGGAGGAGGUUUAUCGAAUUUUCGGCGGAUGCCUCCAAA

Variants of: B1
Test: self-cleavage kobs at 10000 uM GlcN6P; higher = faster cleavage; RNA array
Conditions: with glucosamine-6-phosphate
Procedure, shortened: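 On sequenced MiSeq chips, barcoded ribozyme variants were made in situ by E. coli RNA polymerase and followed at 37 °C through a hybridised Cy3 probe. Glucosamine-6-phosphate was flowed in at 40 μM to 10 mM in HEPES/KCl/Mg(OAc)2 buffer. Exponential fits to normalised per-tile medians gave kobs, and weighted Michaelis–Menten fits gave kcat and KM.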

Variant	self-cleavage kobs at 10000 uM GlcN6P [s⁻¹]
AUAAAAGCGCCGGCACUACAGAAAUGUAGUCGACGAGGAGGAGGUUGAUCGGAUUUUCAUCGGAUGCCUCCAAA	< 1e-05
AUAAAAGCGCCACAACUACAGAAAUGUAGUUGACGAGGAGGAGGUUUAGCGAAUUUUCUGCGGAUGCCUCCAAA	< 1e-05
AUAAAAGCGCCUGAUAUACAGAAAUGUAGUUGACGAGGAGGAGGUUUAUCGAAUUUUCGGCGGAUGCCUCCAAA	0.00105 ± 0.00024
AUAAAAGCGCCUGAACUACAGAAAUGUAGUUGACGAGGACUAGGUUUAUCGAAUUUUCGGCGGAUGCCUCCAAA	6.81e-05 ± 1.9e-05
AUAAAAGCGCCAUAACUACAGAAAUGUAGUUGACGAGGAAGAGGUUUAUCGAAUUUUCGGCGGAUCCCUCAAAA	2.79e-05 ± 1.3e-05
AUAAAAGCGCCAGGACUACAGAAAUGUAGUUGACGAGGAGGAUGUUAAUCGAAUUUUAGGCGGAUGACUCCAAA	7.13e-05 ± 1.3e-05
AUAAAAGCGCCAGGACUACAGAAAUGUAUUUGACGAGGACGAGGUUUAUCGAAUUUUCGGCGGAUGCCUCCAAA	0.00075 ± 0.00013
AUAAAAGCGCCAGCACUACAGAAAUGUAGUUGACGAGGAGGAGGUUGAUCGAACUUUCGGCGGAUGCCUCCAAA	0.00121 ± 0.00018
AUAAAAGCGCCAGGACUACAGAAAUGUAGAUGACGAGGAGUAGGUUUAUCGAAUUUUCGGCGGAUGCAUCCAAA	< 1e-05
AUAAAAGCGCCGGCACUACAGAAAUGUAGUUGACGAGGCGGAGUUUUAUCUAAUUUUCGGCGGAUGCCUCCAAA	< 1e-05
AUAAAAGCGCCAGGGCUACAGAAAUGUAGUUGACGAGGAGGAGGUUUCUCGAAUUUUCGGCGGAUGCCUCCAAA	0.00148 ± 0.00029
AUAAAAGCGCCUGAACUACAGAAAUGUAGUUGCUGAGGAGGAGGUUUAUCGAAUUUUCGGCGGAUGCCUGCAAA	< 1e-05
AUAAAAGCGCCUGAACUACAGAAAUGUAAUUGACGAGGAGGAGGUUUAUCGAAUUUUCGGCGGAUGCCUACAAA	9.81e-05 ± 2.5e-05
AUAAAAGCGCCGGAACUACAGAAAUGUAAUUGACGAGGAGGAGGUUUAUCGAAUUUUCGGCGAAUGCCUCCAAA	< 1e-05
AUAAAAGCGCCGGAACUACAGAAAUGUAGUUGACGAGGAGGGGGUUCAUCGAAUUUUCGGCGGAUGCCUCCAAA	0.000197 ± 3.9e-05
AUAAAAGCGCCAAAACUACAGAAAUGUAGUUGACUACGAGGAGGUUUAUCGAAUUUUCGGCGGAUGCCUCCAAA	< 1e-05
AUAAAAGCGCCACGACUACAGAAAUGUAGUUGACGAGGAGUAGGUUUAUCGAAUUUUCGGCGGAUGCCUCCAAA	6.44e-05 ± 1.7e-05
AUAAAAGCGCCAGCUCUACAGAAAUGUAGUUCACGAGGAGGAGGUUUAUCGAAUUUUUGGCGGAUGCCUCCAAA	3.19e-05 ± 1.1e-05
AUAAAAGCGCCAGGACUACAGAAAUGUAGUUGACGCGGAGGAGGUUUAUCGAAAUUUCGGCGUAUGCCUCCAAA	< 1e-05

Variant	self-cleavage kobs at 10000 uM GlcN6P [s⁻¹]
AUAAAAGCGCCGGAAAUACAGAAAUGUAUUUGACGAGGAGGAGGUUUAUCGAAUUUUCGGCGGAUGCCUCCAAA	0.000458 ± 9.3e-05
AUAAAAGCGCCGGAACUACAGAAAUGUAGGUGACGAGGAGGAGGUUUAUCGAUUUUUCGGCGGAUGCCUCCAAA	9.4e-05 ± 2e-05
AUAAAAGCGCCAGCACUACAGAAAUGUAGUUGACGAGGAGGAGGUUUAUCGGAUUUUCGGAGGAUGCCUCCAAA	< 1e-05
AUAAAAGCGCCAAAACUACAGAAAUGUAGUUGACGAGGAGGAUGGUUAUCGAAUUUUCGGCGGAUGCCUCCAAA	6.53e-05 ± 2.3e-05
AUAAAAGCGCCUGAAUUACAGAAAUGUAGUUGACGAGGAGGGGGUUUAUCGAAUUUUCGGCGGAUGCCUCCAAA	0.0803 ± 0.038
AUAAAAGCGCCUGAAGUACAGAAAUGUAGUUGACGAGGAUGAGGUUUAUCGAAUUUUCGGCGGAUGCCUCCAAA	0.000769 ± 0.00016
AUAAAAGCGCCUCAACUACAGAAAUGUAGUUGACGAGGAGGAGGUUUAUCGUAUUUUCGACGGCUGCCUCCAAA	< 1e-05
AUAAAAGCGCCAGGACUACAGAAAUGUAGUUGACGAGGAGGAGCUUUAUCGAAUGUUCGGCGGAUGUCUCCAAA	0.000221 ± 4.1e-05
AUAAAAGCGCCGGAACUACAGAAAUGUAGUUGACGAGGAGGAGGUUUAUCGAAUUUUAGGCGGAUGCCUCAAAA	5.83e-05 ± 1.4e-05
AUAAAAGCGCCAGGACUACAGAAAUGUAGUUGACGAGGAGGAGGUUUAUGGAAUUUUCGGCGGAUGCCUUCAAA	9.53e-05 ± 1.4e-05
AUAAAAGCGCCUGAACUACAGAAAUGUAGUUGACGAGGAUGAGGUUUAUCGAAAUUUCGGCGGAUGCCUCCAAA	0.000861 ± 0.00024
AUAAAAGCGCCACAACUACAGAAAUGUAGUUAACGAGGAGGAGGGUUAUCGCAUUUUCGGCGGAUGCCUUCAAA	< 1e-05
AUAAAAGCGCCAGGACUACAGAAAUGUAGGUGACGAGGAGGAGGUUCAUCGAAUUUUCGGCGGAUGCCUCCAAA	0.00168 ± 0.00041
AUAAAAGCGCCUGAACUACAGAAAUGUAGUUGACGAGGAGGAGGUUGAUCGUAUUUUCGGCGGAUGCCGCCAAA	6.72e-05 ± 3e-05
AUAAAAGCGCCGGGACUACAGAAAUGUAGUUGACGAGGAGGAGGUUUAUCGAAUUUUCCGCGGAUGCCUCCAAA	0.000119 ± 3.7e-05
AUAAAAGCGCCACAACUACAGAAAUGUAGUUGACGAGGAGGAGGUUAAUCGAAUUUUCGGCGGAUGCCUCCAAA	7.19e-05 ± 9.5e-06
AUAAAAGCGCCACAUCUACAGAAAUGUAGUUGACGAGGAGGAGGUUUAUCGAAUUUUGGGCGGAUGCCUCCAAA	0.000104 ± 1.7e-05
AUAAAAGCGCCAAAACUACAGAAAUGUAGUUGACGAGGAGGAGGUUUAUCUAAUUUUCGUCGGAUGCCUCCAAA	< 1e-05
